Source: patent US20250129168A1

Experiments:
[1] = target: recombinant human-Dectin-1 mouse Fc fusion (human) (UniProt Q9BXN2); experiment: biosensor, Fab, Ave K dis (n = 3); repeats Table 3
[2] = target: recombinant human-Dectin-1 mouse Fc fusion (human) (UniProt Q9BXN2); experiment: biosensor, Fab, third K dis column
[3] = target: recombinant human-Dectin-1 mouse Fc fusion (human) (UniProt Q9BXN2); experiment: biosensor, Fab, second K dis column
[4] = target: recombinant human-Dectin-1 mouse Fc fusion (human) (UniProt Q9BXN2); experiment: biosensor, Fab, first K dis column
[5] = target: recombinant human-Dectin-1 mouse Fc fusion (human) (UniProt Q9BXN2); experiment: biosensor, Fab, Ave of three

B1: 2M24A.23 hFab H1 (Fab, V domains shown)
VH: QVQLVQSGAEVKKPGASVKVSCKSSGYTFTDYYIHWVRQAPGQGLEWMGWINPNSGDTNYAQKFQGRVTMTRDTSISTAYMELSRLRSDDTAVYYCARNSGSYSFGYWGQGTLVTVSS
VL: DIQMTQSPSSVSASVGDRVTITCRASQGISSWLAWYQQKPGKAPKLLIFGASSLQSGVPSRFSGSGSGTDFTLTVSSLQPEDFATYYCQQAYSFPFTFGPGTKVDIE
koff [1]: 0.00396 s⁻¹
koff [2]: 0.00204 s⁻¹
koff [3]: 0.00143 s⁻¹
koff [4]: 0.00841 s⁻¹
koff [5]: 0.00396 s⁻¹

B2: 2M24A.25 hFab H3 (Fab, V domains shown)
VH: QVQLVQSGAEVKKPGASVKVSCKASGYTFTDYYIHWVRQAPGQGLEWMGWINPNSGDTNYAQKFQGRVTMTRDTSISTAYMELSRLRSDDTAVYYCARNSGSYSFGYWGQGTLVTVSS
VL: DIQMTQSPSSVSASVGDRVTITCRASQGISSWLAWYQQKPGKAPKLLIFGASSLQSGVPSRFSGSGSGTDFTLTVSSLQPEDFATYYCQQAYSFPFTFGPGTKVDIE
koff [1]: 0.0037 s⁻¹
koff [2]: 0.00214 s⁻¹
koff [3]: 0.00132 s⁻¹
koff [4]: 0.00765 s⁻¹
koff [5]: 0.0037 s⁻¹

B3: 2M24A.26 hFab H4 (Fab, V domains shown)
VH: QVQLVQSGAEVKKPGASVKVSCKSSGYTFTDYYMHWVRQAPGQGLEWMGWINPNSGDTNYAQKFQGRVTMTRDTSISTAYMELSRLRSDDTAVYYCARNSGSYSFGYWGQGTLVTVSS
VL: DIQMTQSPSSVSASVGDRVTITCRASQGISSWLAWYQQKPGKAPKLLIFGASSLQSGVPSRFSGSGSGTDFTLTVSSLQPEDFATYYCQQAYSFPFTFGPGTKVDIE
koff [1]: 0.00264 s⁻¹
koff [2]: 0.0016 s⁻¹
koff [3]: 0.00102 s⁻¹
koff [4]: 0.0053 s⁻¹
koff [5]: 0.00264 s⁻¹
